± gives the uncertainty stated by the source.
Assay: self-splicing fitness, log relative to wild type (ln ratio); higher = more splicing; Tetrahymena group I intron in knt gene, E. coli kanamycin selection, DiMSum; sequences stand for … in CUCUCU…GGAGGGAAAAGUUAUCAGGCAUGCACCUGGUAGCUAGUCUUUAAACCAAUAGAUUGCAUCGGUUUAAAAGGCAAGACCGUCAAAUUGCGGGAAAGGGGUCAACAGCCGUUCAGUACCAAGUCUCAGGGGAAACUUUGAGAUGGCCUUGCAAAGGGUAUGGUAAUAAGCUGACGGACAUGGUCCUAACCACGCAGCCAAGUCCUAAGUCAACAGAUCUUCUGUUGAUAUGGAUGCAGUUCACAGACUAAAUGUCGGUCGGGGAAGAUGUAUUCUUCUCAUAAGAUAUAGUCGGACCUCUCCUUAAUGGGAGCUAGCGGAUGAAGUGAUGCAACACUGGAGCCGCUGGGAACUAAUUUGUAUGCGAAAGUAUAUUGAUUAGUUUUGGAGUACUCGUGGUCG
Procedure, shortened: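 Six replicate transformations of E. coli BL21(DE3) with a pET-22b(+) library were grown overnight at 37°C or 30°C. The library randomised all eight P1ex-region intron nucleotides, the intron lying in the knt kanamycin-resistance gene, and plates were LB agar with or without 25 μg/mL kanamycin plus 100 μg/mL carbenicillin, 50 μM IPTG and 0.2% rhamnose. Pooled colonies were amplicon-sequenced on an Illumina HiSeq 2500, and fitness is the DiMSum error-weighted combination of wild-type-normalised replicate fold changes, kanamycin versus none.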

Row | Sequence | self-splicing fitness (ln) (30 °C) | self-splicing fitness (ln) (37 °C)
1 | GUGGAGCAAUAUUACGAAUA | -4.24 ± 0.47 | -2.33 ± 0.38
2 | GUGGAGCAAUAUUACGACCA | – | -1.24 ± 0.35
3 | GUGGAGCAAUAUUACGAUAC | -1.47 ± 0.26 | -0.631 ± 0.42
4 | GUGGAGCAAUAUUACGAUUC | -0.681 ± 0.31 | 0.0106 ± 0.22
5 | GUGGAGCAAUAUUACGCAAA | -2.28 ± 0.43 | -1.83 ± 0.25
6 | GUGGAGCAAUAUUACGCCUA | -3 ± 0.29 | -1.96 ± 0.2
7 | GUGGAGCAAUAUUACGCGGA | – | -1.85 ± 0.24
8 | GUGGAGCAAUAUUACGCGGU | -1.16 ± 0.3 | -0.344 ± 0.29
9 | GUGGAGCAAUAUUACGCGUU | -2.56 ± 0.16 | -1.94 ± 0.23
10 | GUGGAGCAAUAUUACGCUGG | -3.52 ± 0.37 | -2.41 ± 0.33
11 | GUGGAGCAAUAUUACGCUUU | -3.84 ± 0.32 | -2.41 ± 0.27
12 | GUGGAGCAAUAUUACGGCCU | -1.74 ± 0.19 | -0.55 ± 0.3
13 | GUGGAGCAAUAUUACGGGAU | -4.12 ± 0.23 | -1.99 ± 0.24
14 | GUGGAGCAAUAUUACGGUUG | -3.04 ± 0.15 | –
15 | GUGGAGCAAUAUUACGUAAU | -2.23 ± 0.13 | -0.812 ± 0.13
16 | GUGGAGCAAUAUUACGUACA | -2.11 ± 0.33 | –
17 | GUGGAGCAAUAUUACGUACU | -2.19 ± 0.37 | -2.2 ± 0.32
18 | GUGGAGCAAUAUUACGUAUC | -2.13 ± 0.2 | -0.331 ± 0.17
19 | GUGGAGCAAUAUUACGUAUG | -3.15 ± 0.24 | -2.3 ± 0.24
20 | GUGGAGCAAUAUUACGUGAG | -2.1 ± 0.19 | -2.39 ± 0.21
21 | GUGGAGCAAUAUUACGUGUC | -3.84 ± 0.22 | -2.64 ± 0.24
22 | GUGGAGCAAUAUUACGUUAA | -2.17 ± 0.19 | -2.41 ± 0.26
23 | GUGUAGCAAUAUUACGAGCG | – | -0.927 ± 0.34
24 | GUGUAGCAAUAUUACGAUAA | -2.6 ± 0.19 | -0.508 ± 0.12
25 | GUGUAGCAAUAUUACGAUGA | -1.16 ± 0.087 | -0.756 ± 0.094

Row | Sequence | self-splicing fitness (ln) (30 °C) | self-splicing fitness (ln) (37 °C)
26 | GUGUAGCAAUAUUACGAUUC | 0.325 ± 0.094 | -0.738 ± 0.088
27 | GUGUAGCAAUAUUACGCAUU | -2.29 ± 0.3 | -1.97 ± 0.28
28 | GUGUAGCAAUAUUACGCGUG | -3.82 ± 0.26 | -1.49 ± 0.15
29 | GUGUAGCAAUAUUACGCUAG | -3.53 ± 0.31 | -1.88 ± 0.36
30 | GUGUAGCAAUAUUACGCUUC | -2.71 ± 0.28 | -3.09 ± 0.47
31 | GUGUAGCAAUAUUACGGAAA | -3 ± 0.28 | -1.42 ± 0.27
32 | GUGUAGCAAUAUUACGGAAU | -1.42 ± 0.13 | -1.64 ± 0.25
33 | GUGUAGCAAUAUUACGGCAG | – | -0.824 ± 0.23
34 | GUGUAGCAAUAUUACGGGAC | -3.44 ± 0.32 | -2.03 ± 0.28
35 | GUGUAGCAAUAUUACGUCCG | -3.16 ± 0.33 | -0.647 ± 0.22
36 | GUGUAGCAAUAUUACGUCCU | -0.899 ± 0.15 | -0.148 ± 0.19
37 | GUGUAGCAAUAUUACGUGGG | -4.25 ± 0.21 | -4.08 ± 0.26
38 | GUGUAGCAAUAUUACGUGUA | -2.62 ± 0.14 | -1.22 ± 0.11
39 | GUGUAGCAAUAUUACGUUGC | -1.92 ± 0.22 | -2.28 ± 0.46
40 | GUUAAGCAAUAUUACGACAA | -0.704 ± 0.29 | -1.12 ± 0.26
41 | GUUAAGCAAUAUUACGACAG | -2.85 ± 0.28 | -1.82 ± 0.33
42 | GUUAAGCAAUAUUACGACCA | -0.467 ± 0.21 | -1.67 ± 0.17
43 | GUUAAGCAAUAUUACGACUG | -2.57 ± 0.2 | -2.53 ± 0.4
44 | GUUAAGCAAUAUUACGAUAU | -1.02 ± 0.067 | -0.0864 ± 0.074
45 | GUUAAGCAAUAUUACGCAAC | – | -0.0162 ± 0.34
46 | GUUAAGCAAUAUUACGCCGA | -1.83 ± 0.19 | -0.947 ± 0.18
47 | GUUAAGCAAUAUUACGCCGG | – | -0.148 ± 0.27
48 | GUUAAGCAAUAUUACGCCGU | -1.42 ± 0.19 | -1.39 ± 0.23
49 | GUUAAGCAAUAUUACGCCUC | -1.41 ± 0.25 | 0.196 ± 0.31
50 | GUUAAGCAAUAUUACGCGAG | -0.369 ± 0.1 | -0.341 ± 0.14

Row | Sequence | self-splicing fitness (ln) (30 °C) | self-splicing fitness (ln) (37 °C)
51 | GUUAAGCAAUAUUACGCGCA | -0.293 ± 0.12 | 0.115 ± 0.15
52 | GUUAAGCAAUAUUACGCUCA | -0.759 ± 0.1 | 0.0333 ± 0.13
53 | GUUAAGCAAUAUUACGCUGG | -0.613 ± 0.17 | -0.0646 ± 0.2
54 | GUUAAGCAAUAUUACGCUUA | -3.09 ± 0.26 | -2.71 ± 0.25
55 | GUUAAGCAAUAUUACGGAGG | -4 ± 0.23 | -1.56 ± 0.19
56 | GUUAAGCAAUAUUACGGAGU | -3.71 ± 0.23 | -0.486 ± 0.13
57 | GUUAAGCAAUAUUACGGCAC | -0.637 ± 0.12 | 0.0416 ± 0.15
58 | GUUAAGCAAUAUUACGGUAG | -2.87 ± 0.17 | -1.69 ± 0.17
59 | GUUAAGCAAUAUUACGGUCA | -0.91 ± 0.098 | -0.943 ± 0.092
60 | GUUAAGCAAUAUUACGUAAA | -1.45 ± 0.12 | -1.43 ± 0.12
61 | GUUAAGCAAUAUUACGUGCA | -1.44 ± 0.1 | -0.144 ± 0.11
62 | GUUAAGCAAUAUUACGUGUU | -3.27 ± 0.14 | -1.11 ± 0.1
63 | GUUAAGCAAUAUUACGUUGA | -3.87 ± 0.33 | -1.43 ± 0.25
64 | GUUAAGCAAUAUUACGUUUC | -1.75 ± 0.21 | -1.29 ± 0.18
65 | GUUCAGCAAUAUUACGAAUA | -1.01 ± 0.12 | -0.181 ± 0.1
66 | GUUCAGCAAUAUUACGAGAC | -1.99 ± 0.4 | -0.261 ± 0.22
67 | GUUCAGCAAUAUUACGAGAG | -0.895 ± 0.12 | -0.725 ± 0.12
68 | GUUCAGCAAUAUUACGAUAA | -0.196 ± 0.084 | 0.169 ± 0.097
69 | GUUCAGCAAUAUUACGCAAA | -0.717 ± 0.17 | -0.625 ± 0.18
70 | GUUCAGCAAUAUUACGCACA | 1.48 ± 0.34 | -1.71 ± 0.49
71 | GUUCAGCAAUAUUACGCCCG | -1.59 ± 0.22 | -0.196 ± 0.28
72 | GUUCAGCAAUAUUACGCCUG | -1.97 ± 0.2 | -0.936 ± 0.22
73 | GUUCAGCAAUAUUACGCCUU | -0.418 ± 0.083 | 0.046 ± 0.082
74 | GUUCAGCAAUAUUACGCGCU | -2.34 ± 0.18 | -1.13 ± 0.13
75 | GUUCAGCAAUAUUACGCGGA | -4.19 ± 0.42 | -2.54 ± 0.23

Row | Sequence | self-splicing fitness (ln) (30 °C) | self-splicing fitness (ln) (37 °C)
76 | GUUCAGCAAUAUUACGCGUC | -1.41 ± 0.071 | -0.257 ± 0.078
77 | GUUCAGCAAUAUUACGGUAC | -2.69 ± 0.19 | 0.0172 ± 0.14
78 | GUUCAGCAAUAUUACGGUUG | -1.9 ± 0.089 | -0.591 ± 0.1
79 | GUUCAGCAAUAUUACGUACG | -1.32 ± 0.1 | -0.0258 ± 0.11
80 | GUUCAGCAAUAUUACGUAGC | -0.047 ± 0.087 | -0.0432 ± 0.11
81 | GUUCAGCAAUAUUACGUCAU | -0.56 ± 0.083 | -0.0298 ± 0.09
82 | GUUCAGCAAUAUUACGUCGG | -3.7 ± 0.21 | -2.39 ± 0.23
83 | GUUCAGCAAUAUUACGUGCG | -1.45 ± 0.068 | -0.215 ± 0.093
84 | GUUCAGCAAUAUUACGUUAG | -1.3 ± 0.077 | -0.731 ± 0.11
85 | GUUGAGCAAUAUUACGAAGA | – | -2.71 ± 0.48
86 | GUUGAGCAAUAUUACGAGUA | – | -1.41 ± 0.39
87 | GUUGAGCAAUAUUACGAUCC | -0.364 ± 0.16 | 0.0175 ± 0.28
88 | GUUGAGCAAUAUUACGAUCG | -1.18 ± 0.39 | –
89 | GUUGAGCAAUAUUACGCCCA | -1.93 ± 0.45 | -1.74 ± 0.38
90 | GUUGAGCAAUAUUACGCCCG | -2.7 ± 0.49 | –
91 | GUUGAGCAAUAUUACGCCUA | -1.73 ± 0.26 | -1.92 ± 0.3
92 | GUUGAGCAAUAUUACGCCUC | -2.09 ± 0.39 | –
93 | GUUGAGCAAUAUUACGCGGG | -3.17 ± 0.15 | -2.51 ± 0.26
94 | GUUGAGCAAUAUUACGCGUA | -3.48 ± 0.47 | -0.589 ± 0.18
95 | GUUGAGCAAUAUUACGCUAA | -2.15 ± 0.27 | -2.26 ± 0.26
96 | GUUGAGCAAUAUUACGGCAU | -1.32 ± 0.12 | -0.928 ± 0.17
97 | GUUGAGCAAUAUUACGGCCC | -1.28 ± 0.19 | -0.757 ± 0.29
98 | GUUGAGCAAUAUUACGGCGG | – | -2.66 ± 0.36
99 | GUUGAGCAAUAUUACGGCUC | -2.04 ± 0.31 | -1.38 ± 0.31
